Data reported in US12662540B2, “Compositions and methods for inhibition of MICA/B shedding” (DANA-FARBER CANCER INSTITUTE, INC., priority 2017, dated 2026).

Key:
[1] = system: murine tumor cell lines (B16F10, CT26, Neuro-2a) expressing full-length MICA or MICB; assay: Shed and surface MICA/MICB in murine tumor cell lines transduced with full-length MICA or MICB; type: cell-based, mouse; details: B16F10-MICA cells, 24 hours
From the text: B16F10, CT26, Neuro-2a, EL4 and RMA-S cell lines were transduced with lentiviral vector pHAGE-CMV-fullEF1a. MICA (allele 009) cDNA or other inserts were placed between NotI and BamHI cloning sites, 3′ to the EF1α promoter and 5′ to the IRES. ZsGreen or luciferase cDNAs were cloned 3′ to the IRES as fluorescence or bioluminescence reporters, respectively. The vector with the ZsGreen reporter was used to compare expression of cDNAs encoding full length MICA, full-length MICB and secreted MICA (Neuro-2a, RMA-S and/or B16F10 cell lines). CT26, EL4 and B16F10 cell lines were transduced with the vector that supported expression of the luciferase reporter. […]
Tumor cells (5×10^4 or 1×10^5 per well, depending on the cell line) were cultured for 24 to 72 hours in 96-well plates (flat-bottom plates for adherent cell lines, U-bottom plates for suspension cell lines). […] MICA or control antibodies were added at different concentrations, and shed MICA/B was then detected in supernatants by ELISA using the Human MICA ELISA kit (Ab59569, Abcam) or Human MICB DuoSet ELISA kit (DY1599, R&D Systems), using the procedures recommended by the manufacturers. […]
MICA and MICB were detected on the cell surface by the PE-conjugated anti-MICA/B antibody (clone 6D4, 320906, Biolegend). […] All samples were acquired in a BD LSR Fortessa flow cytometer, and analyzed by FlowJo V10 software.

RMA-S cell lines = assay: 51Cr release assay with murine NK cells against RMA-S cell lines; type: cell-based, mouse
Procedure: Murine NK cells were isolated from the spleen of C57BL/6 Rag1^−/− mice. These cells were enriched by negative selection using a Mouse NK Cell Isolation Kit (130-096-892, Miltenyi Biotech). Cells were then incubated with PE-conjugated anti-NK1.1 and Pacific Blue-conjugated anti-CD3 (Biolegend), and NK cells were sorted using a BD FACS Aria. Purity after sorting was ˜99%. NK cells used for cytotoxicity assays were isolated from mice that had received an intraperitoneal injection of 200 μg Poly(I:C) (InvivoGen) 1 day prior to NK cell isolation.
Target cells were labeled for 1 hour with 100 μCi of ^51[Cr] per 2×10^6 cells in 0.2 ml of media. Subsequently, cells were washed and plated in V-bottom 96-wells plates (5,000 target cells per well). To determine the experimental release, NK cells were added in an equal volume, but at different ratios. […]
For experiments shown in FIGS. 1E, 10, and 13E antibodies were added at the time of the killing assay. […] At the end of the incubation period, plates were centrifuged (2000 rpm, 5 minutes), part of the supernatant was collected, mixed with scintillation fluid, and radioactivity was quantified using a MicroBeta2 reader (Perkin Elmer). Specific killing was calculated using the following formula: 100×(Experimental release−Spontaneous release)/(Maximum release−Spontaneous release).

B16F10-MICA cells = assay: B16F10 metastasis model in immunocompetent mice; type: in vivo, C57BL/6 mice; details: anti-asGM1, anti-NK1.1 or anti-CD8β
Procedure: The B16F10 cells were transduced with the luciferase-based lentiviral vector to express MICA. B16F10-MICA cells (5×10^5) were injected intravenously into C57BL/6 mice through the tail vein. Fewer tumor cells (4×10^5) were injected into NK cell-deficient mice given that the absence of NK cells results in a very large number of metastases. 7C6 or isotype control antibodies (MPC-11 or C1184, BioXcell, which have mIgG2b and mIgG2a isotypes, respectively) were administered intraperitoneally on days 1, 2, 7 and 10 at a dose of 200 μg per mouse. Antibody blockade and depletion were performed as described previously (24). For antibody-based depletion of CD8 T cells or NK cells, 100 μg per mouse of anti-CD8 (5358, BioXcell), anti-NK1.1 (PK136, BioXcell), and anti-asialo(as)GM1 (Wako Chemicals) were given on days −1, 0, and 7. For antibody blockade, anti-NKG2D (HMG2D, BioXcell) or control IgG (MOPC-21) were given at 200 μg per mouse on days −1, 0, 5, 7 and 10. Blood samples were collected at multiple time points by retro-orbital bleeding under isoflurane anesthesia. Mice were euthanized by CO2 inhalation, lungs were perfused with PBS and fixed in formalin solution, and the number of superficial metastases was counted under a stereomicroscope. Histology was performed by the Rodent Histopathology Core of the Dana-Farber/Harvard Cancer Center using lungs that had not been perfused with PBS.
Macrophages were depleted by intravenous injection of 0.2 ml clodronate liposomes (Encapsula NanoSciences LLC). In the humanized and B16F10-MICA metastasis models, 0.2 ml of clodronate liposomes or control liposomes were injected i.v. (on the same day of tumor cell inoculation and then once weekly).

CT26-MICA = assay: CT26 metastasis model; type: in vivo, Balb/c mice; details: antibody days 1, 2, 7, 14; count day 21
Procedure: (§1) Balb/c wild type mice were injected intravenously with 1×10^6 CT26-MICA, and treated with 7C6-mIgG2b or MPC-11 (isotype) administered intraperitoneally on days 1, 2, 7, and 14. Euthanasia was performed on day 21, followed by lung perfusion with 30% Indian ink through the trachea and fixation in Fekete's fixative. That procedure stains the lungs in black, while the metastases remain white, enabling counting of metastases under a stereomicroscope (24).
as §1, with “stereomicroscope.” for “stereomicroscope (24).”

B1: 7C6-mIgG2b: 7C6 with parental murine IgG2b Fc (antibody)
VH: QIQLVQSGPELKKPGETVKVSCKASGYMFTNYAMNWVKQAPEKGLKWMGWINTHTGDPTYADDFKGRIAFSLETSASTAYLQINNLKNEDTATYFCVRTYGNYAMDYWGQGTSVTVSSAKTTAPSVYPLAPVCGDTTGSSVTLGCLVKGYFPEPVTLTWNSGSLSSGVHTFPAVLQSDLYTLSSSVTVTSS
VL: DIQMTQTTSSLSASLGDRVTISCSASQDISNYLNWYQQKPDGTVKLLIYDTSILHLGVPSRFSGSGSGTDYSLTISNLEPEDIATYYCQQYSKFPRTFGGGTTLEIK
In the case of B1, the “ability to inhibit MICA shedding, 7C6 with distinct Fc regions” value [1] is reported as “does not alter the ability of MICA antibody to inhibit MICA shedding”, the “murine NK cell-mediated cytotoxicity against tumor cells expressing full-length MICA” value (RMA-S cell lines; full-length MICA) is reported as “enhances NK cell-mediated cytotoxicity” and the “murine NK cell-mediated cytotoxicity against tumor cells that release MICA by exocytosis” value (RMA-S cell lines; secreted MICA) is reported as “not against tumor cells that release MICA by exocytosis”. For the same molecule, the “therapeutic activity against lung metastases after NK cell or CD8 T cell depletion” value (B16F10-MICA cells) was “NK cell (anti-asGM1 or anti-NK1.1) but not CD8 T cell (anti-CD8β) depletion abrogated the therapeutic activity” and the “activity against CT26-MICA lung metastases” value (CT26-MICA) was “has activity against CT26-MICA tumor cells”.
